Data: the domain aggregation screens of Martell et al. (2025)

Assay: soluble fraction after stress (log2 fold change); higher = more stays soluble; pooled small domains, quantitative proteomics
Conditions: stress: 50 degC
Outline: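 The stress applied to every library was 50°C. These custom libraries of small protein domains were pooled and measured at high throughput with quantitative proteomics as the read-out. Aggregation propensity is expressed as the base-two logarithm of the fold change in how much of each protein remains soluble. The higher the value, the more of that protein stays in solution.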

Row | Sequence | soluble fraction (log2)
1 | HMALSSQQIKDMQSWYGTKADGIWGSKSTTAAGGRDAGAAYSLYSSNKGRYSSYTDYMSYGGG | 0.072
2 | HMEHDTVLSKVFRRLREAHVPLSLDDIYQGLRKTVNNNSEIREKIVTLQERGLVAEILGPKGGKKYVAKPT | -0.105
3 | HMEPVTETVYAMDTVNIRAAADQTSEKIGSVTVGTALTRTGTDGDWSIIDYNGTTGYVKSEFLSNTAPEV | -0.00262
4 | HMIPDLPAVGVNVHKERRRQQLSLDALAAGSGVSKAMLSQIESGKVNPTVATMWKIAHALGVDFELLLKGE | -0.154
5 | HMGSWEDALKNWVDSALASGQKGILEQAVPKFERIMIETALTHTAGRRRDASLLLGWGRNTLTRKIKELGI | -0.214
6 | HMGTTLTKIPGIGENRARLLLRHFGSLRAVREADADALAAVKGMTRPAAEAIVRYFEQQDAEGRRD | 0.21
7 | HMTTELDTTAITPIIQKVLKANPDVVAKYKAGQQQVIGFLMGQVMRELSTKPNPKELQSLIVAQLQQA | 0.0755
8 | HMEKALEVKYQKMVELLGDQSTFYVDEVKKIFPEMKKSSLYWNMSKLVEGGYLRRIRNGVYAFNE | -0.48
9 | HMDLPGIVTETDRQRADLAARIGAAKVEAVLAGGARSVEADEDFDADTRRELHQFLTRMARRAFLEER | -0.0484
10 | HMAIDWVQIKAEYISGTMSASKLAEKHGVSVYAIRKRSGKERWQELRRQNQSETANKIAEKI | -1.6
11 | HMPETAQLTDIQVSRSQAHTGIFSLHYYLTGTDSRGERVRLEISGDDYTRLSGSSSVTVEYYRHTGRIVRY | -1.55
12 | HMGFAEFWLAYPKKVGKGEAERKWKTLKPDAGAVLSAVKRQSASEQWRKDGGRYIPNPATWLHQRRWE | -0.0238
13 | HMGMYFTEMRKNEGLIALNGVAESNKRVSDLMDNLKDSSSFDAADIKAVKSGSGDASSLMDFELLVT | 0.113
14 | HMDAKQLQSLKNNNEQLAGFIVRLTNFYEGLSPDIDAELSKLRSHLSGKVDYTLATVSINKINQLFMLEP | -2.6
15 | HMEKSQIHLIHTRYVNPEQLVPILSMVIPAENIYVKSDSNLIIINGSSEMLREVESIVSKLDVPS | 0.0228
16 | HMYPFSEETLKEKIREYLKTNRSINRRVLEREFYIRKQTALNWLNRLVDSGFLIKEGVRNSPVYFLAE | -0.691
17 | HMFANQLLLTRFDLNYIKSDVLSRQIDVLGIPIKKLTIEANNKSIWLQGTSQSLSKVRELIGIIDIRENA | -3.1
18 | HMSEQMQVGELVFQLHRKAIKNLHINVLPPDGFVRVSAPQAMTETAIRTAVISRLPWIRRQQQAFAAQ | -2.12
19 | HMLSVRQRMGELLERLADGQFHRFESLFTVEEGKLGVVVTFLGLLTLAKEQLLDIVQEGPTAPIYVKSLA | -0.437

Row | Sequence | soluble fraction (log2)
20 | HMTFPIDINRADTEQLTALPGIGEVLAKRIIAYREENGSFLSTDELKNVEGIGEKRLEAIVDLITIG | 0.113
21 | HMNDLKEDTITVQSVEYIDSDDGTMVYIKDTNHQVYKQAFKEDESLIRISAGDVLHVKYQPMDNEIHLL | -0.364
22 | HMEISLAETLRSSLHMILGWYQNTGDKKLLELIRLHLQAYVNTGNSLNPEMEEIRAALETLGEGKEAFRP | -0.999
23 | HMKTKILAPIPGSIMVVDVKVGDTVKVGDRLVQLEAMKMENNITSEKAGKITAVLVTAGQKVLQNEVMIEL | -0.853
24 | HMGTGADKNSWTIGDKVKHRKWGTGTVVKVTGAGEDAELDIAFKSEGIKRLLAAFAPIEKVK | -0.034
25 | HMLPAGAAAPLEDGSAPEGYTVKGNADSGLYHEPDGRWYDATVAEFWFKTAADAEAAGFRKAGS | 0.121
26 | HMIVIMKAKAEEEDVNRVIDTIQSLGLRTQLNLGAERMVVAVIGDISKIGEDNFFRIRAMKGVENTVFVSK | -0.396
27 | HMGHEALSSKLDEIQGVGKEKRSLLLDHFKTFERIKNASMEELEAVPSLGKNTAKAVFRFFHS | 0.07
28 | HMPPLVLRGVVMGADGARLAILAQGEAGAALGIGETWKEYTLRSVTDQSATLEHRSGTITLTR | -0.117
29 | HMSASNSIDFANRMIYNKNQVAVFNFGKHMGRPVLEVLKSDPSYYDWMMKGDFPMDTKRKLTEIKLQGF | -0.755
30 | HMDLDIRDDIYRANIPNDYKLQQMQNNIDYDKVLTGYYNNRPEANVIANRTLQLANDVYNRD | -0.0187
31 | HMSEEVDVPDLVGMQLEEAEKSLEPLGLKLKIAKEIPNSEFEKGKIVDQKTKAGEKVKTGYTIEVTVSSG | -0.267
32 | HMSHSDMEEWTDAVRSRRKKLGLTQVQIARRLGVTSHHFSQIESGRTIPSASLQIEIDRLLKNWND | -0.963
33 | HMGTDIGADKAAQTALADAGLSSSQVTGLRTKQDWDDGQLRYEVEFRAGGVEYDYELAADGTILKADRDT | 0.247
34 | HMVVVLPGETIKIDLIREGKDKQALGYLEDGTMIVVDNAKHLIGKNVEIEIDNVLPKEAGRVIFASLHGA | -0.109
35 | HMELSPAELGERLKVARETANVTQDAGAKAAGIARTTLVAIEKGQRSARIDELQTLSRRYGVSVNSLLRR | -0.135
36 | HMKEKQLMTLDDDLYAFLLKHPGIIQKDIYNHFPYDIKGVIADTLYAWDKTGKIKRTKSGNSYIIYT | -0.0536
37 | HMQEIKPEPISDGRVWKEGMWATTPLGIEGQLLSDPDEKGMVQLGYGNMRININIQDLDPSR | -0.0705
